These results are taken from publication PMC8132391.

What is called stoichiometry N is the number of molecules, sites or subunits per partner or assembly.

In test [1] the target is all2909, COG4337 protein of Anabaena sp. PCC 7120, without N-terminal leader (Anabaena sp. PCC 7120) (UniProt Q8YT18). Put plainly: SEC-MALS; Superdex 200 increase 10/300 GL, 293 K, 20 mM Tris-HCl pH 8.0, 100 mM NaCl; Bn86287 3.7 mg/ml and all2909 4.9 mg/ml, 30 ul injected. Background: SEC sorts molecules by how far they enter the pores of the column.
For test [2], the target named is Bn86287 (104-607 amino acids), COG4337 protein of Bigelowiella natans (Bigelowiella natans). The description is as above.

Consider “all2909, COG4337 protein of Anabaena sp. PCC 7120, without N-terminal leader (from UniProt Q8YT18 31-205) (enzyme)”, for which the stoichiometry N in test [1] worked out at 4.
In the case of “Bn86287 (104-607 amino acids), COG4337 protein of Bigelowiella natans (enzyme)”, the stoichiometry N in test [2] was 2.
